# Data taken from US20230140293A1.
# Key:
# CH505 M11 gp120 (HIV-1) = test: ELISA, gp120 on plate
# CH505 M5 gp120 (HIV-1) = test: ELISA, gp120 on plate
# [1] = biological target: CH505 transmitted/founder (TF) gp120 (HIV-1); test: ELISA, gp120 on plate
# [2] = biological target: CH505 w020.14 gp120 (HIV-1); test: ELISA, gp120 on plate
# [3] = biological target: CH505 w030.21 gp120 (HIV-1); test: ELISA, gp120 on plate
# [4] = biological target: CH505 w030.28 gp120 (HIV-1); test: ELISA, gp120 on plate
# [5] = biological target: CH505 w053.16 gp120 (HIV-1); test: ELISA, gp120 on plate
# [6] = biological target: CH505 w053.31 gp120 (HIV-1); test: ELISA, gp120 on plate
# [7] = biological target: CH505 w078.15 gp120 (HIV-1); test: ELISA, gp120 on plate
# [8] = biological target: CH505 w078.33 gp120 (HIV-1); test: ELISA, gp120 on plate
# [9] = biological target: CH505 w100.B6 gp120 (HIV-1); test: ELISA, gp120 on plate
# [10] = biological target: CH0505.w4.3 Env, Env-pseudotyped virus produced in 293T cells (HIV-1); test: cell-based or functional assay
# [11] = biological target: CH0505TF Env, Env-pseudotyped virus produced in 293T cells (HIV-1); test: cell-based or functional assay
# [12] = biological target: CH0505TF Env, pseudotyped virus produced in 293S GnTI- cells (HIV-1); test: cell-based or functional assay
# [13] = biological target: CH0505TF.G458Y Env, Env-pseudotyped virus produced in 293T cells (HIV-1); test: cell-based or functional assay
# [14] = biological target: CH0505TF.G458Y Env, pseudotyped virus produced in 293S GnTI- cells (HIV-1); test: cell-based or functional assay
# [15] = biological target: CH0505TF.gly3.197 Env, Env-pseudotyped virus produced in 293T cells (HIV-1); test: cell-based or functional assay
# [16] = biological target: CH0505TF.gly3.197 Env, pseudotyped virus produced in 293S GnTI- cells (HIV-1); test: cell-based or functional assay
# [17] = biological target: CH0505TF.gly3.276 Env, Env-pseudotyped virus produced in 293T cells (HIV-1); test: cell-based or functional assay
# [18] = biological target: CH0505TF.gly3.276 Env, pseudotyped virus produced in 293S GnTI- cells (HIV-1); test: cell-based or functional assay
# [19] = biological target: CH0505TF.gly3.461 Env, Env-pseudotyped virus produced in 293T cells (HIV-1); test: cell-based or functional assay
# [20] = biological target: CH0505TF.gly3.461 Env, pseudotyped virus produced in 293S GnTI- cells (HIV-1); test: cell-based or functional assay
# [21] = biological target: CH0505TF.gly4 Env, Env-pseudotyped virus produced in 293T cells (HIV-1); test: cell-based or functional assay
# [22] = biological target: CH0505TF.gly4 Env, pseudotyped virus produced in 293S GnTI- cells (HIV-1); test: cell-based or functional assay
# [23] = biological target: HIV-1 CH0505TF (CH505 transmitted/founder) Env on Env-pseudotyped virus produced in 293T cells (HIV-1); test: cell-based or functional assay
# [24] = biological target: HIV-1 CH0505TF.G458Y Env on Env-pseudotyped virus produced in 293T cells (HIV-1); test: cell-based or functional assay
# [25] = biological target: HIV-1 CH0505TF.N280D Env on Env-pseudotyped virus produced in 293T cells (HIV-1); test: cell-based or functional assay
# [26] = biological target: HIV-1 CH0505TF.S365P Env on Env-pseudotyped virus produced in 293T cells (HIV-1); test: cell-based or functional assay
# [27] = biological target: HIV-1 426c.DM (N460D/N463D) Env on Env-pseudotyped virus produced in 293T cells (HIV-1); test: cell-based or functional assay
# [28] = biological target: HIV-1 426c.DM (N460D/N463D) Env on Env-pseudotyped virus produced in 293s/GnTI-/- cells (Man5-enrichment) (HIV-1); test: cell-based or functional assay
# [29] = biological target: HIV-1 426c.SM (N276D) Env on Env-pseudotyped virus produced in 293T cells (HIV-1); test: cell-based or functional assay
# [30] = biological target: HIV-1 426c.SM (N276D) Env on Env-pseudotyped virus produced in 293s/GnTI-/- cells (Man5-enrichment) (HIV-1); test: cell-based or functional assay
# [31] = biological target: HIV-1 426c.TM (N276D/N460D/N463D) Env on Env-pseudotyped virus produced in 293T cells (HIV-1); test: cell-based or functional assay
# [32] = biological target: HIV-1 426c.TM (N276D/N460D/N463D) Env on Env-pseudotyped virus produced in 293s/GnTI-/- cells (Man5-enrichment) (HIV-1); test: cell-based or functional assay
# [33] = biological target: HIV-1 Env 426c, Env-pseudotyped virus produced in 293S GnTI- cells (Man5-enriched) (HIV-1 clade C strain 426c); test: cell-based or functional assay
# [34] = biological target: HIV-1 Env 426c, Env-pseudotyped virus produced in 293T cells (HIV-1 clade C strain 426c); test: cell-based or functional assay
# [35] = biological target: HIV-1 Env 426c.DM (N460D.N463D), Env-pseudotyped virus produced in 293S GnTI- cells (Man5-enriched) (HIV-1 clade C strain 426c); test: cell-based or functional assay
# [36] = biological target: HIV-1 Env 426c.DM (N460D.N463D), Env-pseudotyped virus produced in 293T cells (HIV-1 clade C strain 426c); test: cell-based or functional assay
# [37] = biological target: HIV-1 Env 426c.SM (N276D), Env-pseudotyped virus produced in 293S GnTI- cells (Man5-enriched) (HIV-1 clade C strain 426c); test: cell-based or functional assay
# [38] = biological target: HIV-1 Env 426c.SM (N276D), Env-pseudotyped virus produced in 293T cells (HIV-1 clade C strain 426c); test: cell-based or functional assay
# [39] = biological target: HIV-1 Env 426c.TM (N276D.N460D.N463D), Env-pseudotyped virus produced in 293S GnTI- cells (Man5-enriched) (HIV-1 clade C strain 426c); test: cell-based or functional assay
# [40] = biological target: HIV-1 Env 426c.TM (N276D.N460D.N463D), Env-pseudotyped virus produced in 293T cells (HIV-1 clade C strain 426c); test: cell-based or functional assay
# [41] = biological target: HIV-1 Env 426c.TM4 (S278R.G471S.N460D.N463D), Env-pseudotyped virus produced in 293S GnTI- cells (Man5-enriched) (HIV-1 clade C strain 426c); test: cell-based or functional assay
# [42] = biological target: HIV-1 Env 426c.TM4 (S278R.G471S.N460D.N463D), Env-pseudotyped virus produced in 293T cells (HIV-1 clade C strain 426c); test: cell-based or functional assay
# [43] = biological target: HIV-1 clade C strain 426c Env on Env-pseudotyped virus produced in 293T cells (HIV-1); test: cell-based or functional assay
# [44] = biological target: HIV-1 clade C strain 426c Env on Env-pseudotyped virus produced in 293s/GnTI-/- cells (Man5-enrichment) (HIV-1); test: cell-based or functional assay
substance,measurement,setting,value
CH105 (antibody),log AUC,CH505 M11 gp120 (HIV-1),11.7 log AUC
same,log AUC,CH505 M5 gp120 (HIV-1),8.6 log AUC
same,log AUC,[1],11.2 log AUC
same,log AUC,[2],10.4 log AUC
same,log AUC,[3],10.6 log AUC
same,log AUC,[4],9.1 log AUC
same,log AUC,[5],9 log AUC
same,log AUC,[6],13.5 log AUC
same,log AUC,[7],10.1 log AUC
same,log AUC,[8],8.9 log AUC
same,log AUC,[9],11 log AUC
CH106 (antibody),log AUC,CH505 M11 gp120 (HIV-1),12.8 log AUC
same,log AUC,CH505 M5 gp120 (HIV-1),8.4 log AUC
same,log AUC,[1],11.3 log AUC
same,log AUC,[2],11.2 log AUC
same,log AUC,[3],10.9 log AUC
same,log AUC,[4],11.7 log AUC
same,log AUC,[5],9.8 log AUC
same,log AUC,[6],13.4 log AUC
same,log AUC,[7],11 log AUC
same,log AUC,[8],9.5 log AUC
same,log AUC,[9],11.8 log AUC
N6 (antibody),IC50 (µg/ml) in TZM-bl,[10],0.01 µg/mL
same,IC50 (µg/ml) in TZM-bl,[11],0.06 µg/mL
same,IC50 (µg/ml) in TZM-bl,[12],0.016 µg/mL
same,IC50 (µg/ml) in TZM-bl,[13],0.02 µg/mL
same,IC50 (µg/ml) in TZM-bl,[14],0.008 µg/mL
same,IC50 (µg/ml) in TZM-bl,[15],0.01 µg/mL
same,IC50 (µg/ml) in TZM-bl,[16],0.003 µg/mL
same,IC50 (µg/ml) in TZM-bl,[17],0.003 µg/mL
same,IC50 (µg/ml) in TZM-bl,[18],0.004 µg/mL
same,IC50 (µg/ml) in TZM-bl,[19],0.004 µg/mL
same,IC50 (µg/ml) in TZM-bl,[20],0.002 µg/mL
same,IC50 (µg/ml) in TZM-bl,[21],0.001 µg/mL
same,IC50 (µg/ml) in TZM-bl,[22],0.001 µg/mL
same,IC50 (µg/ml) in TZM-bl,[23],0.06 µg/mL
same,IC50 (µg/ml) in TZM-bl,[24],0.02 µg/mL
same,IC50 (µg/ml) in TZM-bl,[25],> 17 µg/mL
same,IC50 (µg/ml) in TZM-bl,[26],0.02 µg/mL
VRC-CH31 (antibody),IC50 (µg/ml) in TZM-bl,[10],0.05 µg/mL
same,IC50 (µg/ml) in TZM-bl,[11],0.03 µg/mL
same,IC50 (µg/ml) in TZM-bl,[12],0.04 µg/mL
same,IC50 (µg/ml) in TZM-bl,[13],0.023 µg/mL
same,IC50 (µg/ml) in TZM-bl,[14],0.06 µg/mL
same,IC50 (µg/ml) in TZM-bl,[15],0.01 µg/mL
same,IC50 (µg/ml) in TZM-bl,[16],0.01 µg/mL
same,IC50 (µg/ml) in TZM-bl,[17],0.002 µg/mL
same,IC50 (µg/ml) in TZM-bl,[18],0.001 µg/mL
same,IC50 (µg/ml) in TZM-bl,[19],0.09 µg/mL
same,IC50 (µg/ml) in TZM-bl,[20],0.007 µg/mL
same,IC50 (µg/ml) in TZM-bl,[21],0.002 µg/mL
same,IC50 (µg/ml) in TZM-bl,[22],0.001 µg/mL
same,ID50/IC50 in TZM-bl,[27],0.73 µg/mL
same,ID50/IC50 in TZM-bl,[28],0.02 µg/mL
same,ID50/IC50 in TZM-bl,[29],> 25 µg/mL
same,ID50/IC50 in TZM-bl,[30],0.7 µg/mL
same,ID50/IC50 in TZM-bl,[31],> 25 µg/mL
same,ID50/IC50 in TZM-bl,[32],1.6 µg/mL
same,IC50 (µg/ml) in TZM-bl,[33],0.04 µg/mL
same,IC50 (µg/ml) in TZM-bl,[34],0.62 µg/mL
same,IC50 (µg/ml) in TZM-bl,[35],0.02 µg/mL
same,IC50 (µg/ml) in TZM-bl,[36],0.73 µg/mL
same,IC50 (µg/ml) in TZM-bl,[37],0.7 µg/mL
same,IC50 (µg/ml) in TZM-bl,[38],> 25 µg/mL
same,IC50 (µg/ml) in TZM-bl,[39],1.6 µg/mL
same,IC50 (µg/ml) in TZM-bl,[40],> 25 µg/mL
same,IC50 (µg/ml) in TZM-bl,[41],0.01 µg/mL
same,IC50 (µg/ml) in TZM-bl,[42],0.15 µg/mL
same,ID50/IC50 in TZM-bl,[43],0.62 µg/mL
same,ID50/IC50 in TZM-bl,[44],0.04 µg/mL
same,IC50 (µg/ml) in TZM-bl,[23],0.03 µg/mL
same,IC50 (µg/ml) in TZM-bl,[24],< 0.01 µg/mL
same,IC50 (µg/ml) in TZM-bl,[25],> 25 µg/mL
same,IC50 (µg/ml) in TZM-bl,[26],1.2 µg/mL
